Test results reported in patent US20220177580A1 (Amgen, published 2022).

What was measured:
[1] = biological target: T1, huFcγRIIa-131H (His-tagged, soluble, captured for SPR) (human, UniProt P12318 34-217, limits assumed); experiment: SPR, His-tagged FcγR captured by anti-His antibody, antibody injected; unenriched panitumumab; apparent KD
T1 construct: His-tagged human FcγR expressed in CHO cells, purified in house and captured by an anti-His antibody on a CM5 chip; also called FcγRIIa-H131; not shown: His tag
T1 sequence (looked up): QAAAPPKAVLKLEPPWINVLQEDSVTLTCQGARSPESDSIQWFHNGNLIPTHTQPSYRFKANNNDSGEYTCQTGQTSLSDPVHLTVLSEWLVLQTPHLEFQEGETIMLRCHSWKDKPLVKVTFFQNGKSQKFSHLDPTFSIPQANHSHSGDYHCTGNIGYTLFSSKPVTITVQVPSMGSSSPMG
Experimental: (§1) Surface plasmon resonance experiments were performed using the SPR T-200 instrument. His-tagged human FcγRs were expressed in CHO cells and purified in house mouse anti-his capture antibody was immobilized at approximately 5000 RU on a Series S Sensor Chip CM5 (GE Healthcare) using Instrument Buffer (0.005% P20 in PBS). FcγRs were diluted to 3.3˜10 nM in running buffer (0.005% P20, 0.1 mg/mL BSA in PBS) and injected at 10 μL/min for 1.5 min for the capture step. Panitumumab samples were diluted in running buffer (PBS+0.005% P20+0.1 mg/mL BSA) over a range of concentrations from 0.4 nM-20000 nM and injected over the captured FcγR with association and dissociation times of 3 minutes at 50 μL/min. The chip surface was regenerated by injecting 10 mM glycine, pH 1.7 at 30 μL/min for 30 s.

[2] = biological target: T2, human FcγRI (His-tagged, soluble, captured for SPR) (human, UniProt P12314 16-292, limits assumed); experiment: SPR, His-tagged FcγR captured by anti-His antibody, antibody injected
T2 construct: His-tagged human FcγR expressed in CHO cells, purified in house and captured by an anti-His antibody on a CM5 chip; also called CD64; not shown: His tag
T2 sequence (P12314 16-292 limits assumed): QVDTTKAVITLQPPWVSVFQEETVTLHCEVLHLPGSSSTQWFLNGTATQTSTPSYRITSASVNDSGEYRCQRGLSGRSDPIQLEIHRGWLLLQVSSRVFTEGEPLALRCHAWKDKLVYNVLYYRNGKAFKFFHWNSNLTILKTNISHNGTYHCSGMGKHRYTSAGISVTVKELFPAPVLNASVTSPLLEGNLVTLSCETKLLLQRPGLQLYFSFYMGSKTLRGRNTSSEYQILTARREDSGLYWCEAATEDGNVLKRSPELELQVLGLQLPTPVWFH
Experimental: as §1

[3] = biological target: T1, huFcγRIIa-131H (His-tagged, soluble, …); experiment: SPR equilibrium binding, His-tagged FcγR captured by anti-His antibody; fucose enriched; equilibrium binding
Experimental: as §1
(§2) To try to assess the affinity of panitumumab and the various enriched glycan species for FcγRs, we measured the biding of panitumumab samples to all three human Fcγ Receptors by surface plasmon resonance (SPR). […] The binding was further assessed for the fucose and afucose enriched panitumumab samples by equilibrium binding (FIGS. 11A-11B). […]

[4] = biological target: T1, huFcγRIIa-131H (His-tagged, soluble, …); experiment: SPR equilibrium binding, His-tagged FcγR captured by anti-His antibody; afucose enriched; equilibrium binding
Experimental: as §1, §2

B1: Panitumumab (antibody, human IgG2, kappa)
heavy: QVQLQESGPGLVKPSETLSLTCTVSGGSVSSGDYYWTWIRQSPGKGLEWIGHIYYSGNTNYNPSLKSRLTISIDTSKTQFSLKLSSVTAADTAIYYCVRDRVTGAFDIWGQGTMVTVSSASTKGPSVFPLAPCSRSTSESTAALGCLVKDYFPEPVTVSWNSGALTSGVHTFPAVLQSSGLYSLSSVVTVPSSNFGTQTYTCNVDHKPSNTKVDKTVERKCCVECPPCPAPPVAGPSVFLFPPKPKDTLMISRTPEVTCVVVDVSHEDPEVQFNWYVDGVEVHNAKTKPREEQFNSTFRVVSVLTVVHQDWLNGKEYKCKVSNKGLPAPIEKTISKTKGQPREPQVYTLPPSREEMTKNQVSLTCLVKGFYPSDIAVEWESNGQPENNYKTTPPMLDSDGSFFLYSKLTVDKSRWQQGNVFSCSVMHEALHNHYTQKSLSLSPGK
light: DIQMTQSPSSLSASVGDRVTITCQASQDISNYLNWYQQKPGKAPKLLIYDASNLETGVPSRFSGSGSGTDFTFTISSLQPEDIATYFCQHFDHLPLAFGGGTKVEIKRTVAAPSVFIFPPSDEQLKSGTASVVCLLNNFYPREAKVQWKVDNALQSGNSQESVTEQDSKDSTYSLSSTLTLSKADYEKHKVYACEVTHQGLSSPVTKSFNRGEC
modifications: N-linked glycan at N-297 (Kabat EU numbering; residue 295 of SEQ ID NO:1)
notes: Human IgG2 anti-EGFR monoclonal antibody produced in CHO cells at Amgen; unfractionated glycan profile; also called Vectibix; IgG2 (Panitumumab)
B1 was tested, and the Kd [1] was roughly 20 µM and the binding result [2] was “no binding (tested: 10 µM)”.

B2: fucose enriched panitumumab (antibody, human IgG2, kappa)
heavy: QVQLQESGPGLVKPSETLSLTCTVSGGSVSSGDYYWTWIRQSPGKGLEWIGHIYYSGNTNYNPSLKSRLTISIDTSKTQFSLKLSSVTAADTAIYYCVRDRVTGAFDIWGQGTMVTVSSASTKGPSVFPLAPCSRSTSESTAALGCLVKDYFPEPVTVSWNSGALTSGVHTFPAVLQSSGLYSLSSVVTVPSSNFGTQTYTCNVDHKPSNTKVDKTVERKCCVECPPCPAPPVAGPSVFLFPPKPKDTLMISRTPEVTCVVVDVSHEDPEVQFNWYVDGVEVHNAKTKPREEQFNSTFRVVSVLTVVHQDWLNGKEYKCKVSNKGLPAPIEKTISKTKGQPREPQVYTLPPSREEMTKNQVSLTCLVKGFYPSDIAVEWESNGQPENNYKTTPPMLDSDGSFFLYSKLTVDKSRWQQGNVFSCSVMHEALHNHYTQKSLSLSPGK
light: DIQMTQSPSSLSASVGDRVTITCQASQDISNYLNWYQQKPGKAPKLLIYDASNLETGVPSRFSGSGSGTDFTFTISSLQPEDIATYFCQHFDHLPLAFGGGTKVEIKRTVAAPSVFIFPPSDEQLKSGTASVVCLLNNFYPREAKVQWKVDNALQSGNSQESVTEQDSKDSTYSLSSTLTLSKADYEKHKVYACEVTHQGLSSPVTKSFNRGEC
modifications: N-297 glycan (residue 295 of SEQ ID NO:1) enriched for fucosylated species (flow-through of FcγIIIa affinity column; terminal galactose removed with β-(1-4)-galactosidase)
notes: also called fucosylated panitumumab; afucose-depleted (flow-through) mAb
Work on B2 yielded a Kd [3] of roughly 7.9 µM.

B3: afucose enriched panitumumab (antibody, human IgG2, kappa)
heavy: QVQLQESGPGLVKPSETLSLTCTVSGGSVSSGDYYWTWIRQSPGKGLEWIGHIYYSGNTNYNPSLKSRLTISIDTSKTQFSLKLSSVTAADTAIYYCVRDRVTGAFDIWGQGTMVTVSSASTKGPSVFPLAPCSRSTSESTAALGCLVKDYFPEPVTVSWNSGALTSGVHTFPAVLQSSGLYSLSSVVTVPSSNFGTQTYTCNVDHKPSNTKVDKTVERKCCVECPPCPAPPVAGPSVFLFPPKPKDTLMISRTPEVTCVVVDVSHEDPEVQFNWYVDGVEVHNAKTKPREEQFNSTFRVVSVLTVVHQDWLNGKEYKCKVSNKGLPAPIEKTISKTKGQPREPQVYTLPPSREEMTKNQVSLTCLVKGFYPSDIAVEWESNGQPENNYKTTPPMLDSDGSFFLYSKLTVDKSRWQQGNVFSCSVMHEALHNHYTQKSLSLSPGK
light: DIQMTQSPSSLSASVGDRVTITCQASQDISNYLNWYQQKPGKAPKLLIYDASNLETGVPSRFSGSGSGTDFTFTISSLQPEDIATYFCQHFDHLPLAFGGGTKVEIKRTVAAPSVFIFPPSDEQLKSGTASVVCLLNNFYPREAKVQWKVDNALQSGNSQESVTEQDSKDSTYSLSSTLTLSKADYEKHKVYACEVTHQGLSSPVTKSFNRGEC
modifications: N-297 glycan (residue 295 of SEQ ID NO:1) enriched for afucosylated species (Endo-H treatment, eluate of FcγIIIa affinity column; terminal galactose removed with β-(1-4)-galactosidase)
notes: also called afucosylated panitumumab; afucose enriched (eluate) mAb
B3 showed a Kd [4] of roughly 8 µM.
